Test results taken from publication PMC6107663, “Crystal structure of human Mediator subunit MED23” (Nature Communications, 2018).

Experiments:
[1] = target: T1, MED23, endogenous, incorporated within the Mediator complex (human (endogenous in HEK-293), UniProt Q9ULK4); test: co-IP; HEK-293 lysate (50 mM Tris/HCl pH 8, 250 mM NaCl, 0.1% Igepal CA-630) incubated with 2 µg of Nb106 overnight at 4 °C; fished with CaptureSelect C-tag Affinity Matrix; western blot; settings: one partner purified
T1 construct: Mediator subunit MED23, human, endogenous; source: endogenous, HEK-293 lysate

[2] = target: T2, human MED23 isoform 1, C-terminal 6xHis-tagged (MED23-6His) (human, UniProt Q9ULK4-1); test: crystal structure; purified MED23 mixed with Nb106 in a 1:1.2 ratio, 1 h at 4 °C; hanging drop vapor diffusion at 20 °C, 10% PEG6000, 100 mM HEPES pH 7.0; one complex in the asymmetric unit; settings: both partners purified
T2 construct: Mediator subunit MED23, human, isoform 1 (NM_004830.3); A rhinovirus 3C protease site stands between MED23 and the 6xHis tag; no cleavage is described; The DNA encoding isoform 1 was amplified by PCR; the words 'full length' are not used, but the model is called complete except for the last 30 residues; also called recombinant human MED23; source: SF21 cells, baculovirus (Bac-to-Bac), purified …
T2 sequence (Q9ULK4 whole entry, the tested form may be a part, canonical isoform): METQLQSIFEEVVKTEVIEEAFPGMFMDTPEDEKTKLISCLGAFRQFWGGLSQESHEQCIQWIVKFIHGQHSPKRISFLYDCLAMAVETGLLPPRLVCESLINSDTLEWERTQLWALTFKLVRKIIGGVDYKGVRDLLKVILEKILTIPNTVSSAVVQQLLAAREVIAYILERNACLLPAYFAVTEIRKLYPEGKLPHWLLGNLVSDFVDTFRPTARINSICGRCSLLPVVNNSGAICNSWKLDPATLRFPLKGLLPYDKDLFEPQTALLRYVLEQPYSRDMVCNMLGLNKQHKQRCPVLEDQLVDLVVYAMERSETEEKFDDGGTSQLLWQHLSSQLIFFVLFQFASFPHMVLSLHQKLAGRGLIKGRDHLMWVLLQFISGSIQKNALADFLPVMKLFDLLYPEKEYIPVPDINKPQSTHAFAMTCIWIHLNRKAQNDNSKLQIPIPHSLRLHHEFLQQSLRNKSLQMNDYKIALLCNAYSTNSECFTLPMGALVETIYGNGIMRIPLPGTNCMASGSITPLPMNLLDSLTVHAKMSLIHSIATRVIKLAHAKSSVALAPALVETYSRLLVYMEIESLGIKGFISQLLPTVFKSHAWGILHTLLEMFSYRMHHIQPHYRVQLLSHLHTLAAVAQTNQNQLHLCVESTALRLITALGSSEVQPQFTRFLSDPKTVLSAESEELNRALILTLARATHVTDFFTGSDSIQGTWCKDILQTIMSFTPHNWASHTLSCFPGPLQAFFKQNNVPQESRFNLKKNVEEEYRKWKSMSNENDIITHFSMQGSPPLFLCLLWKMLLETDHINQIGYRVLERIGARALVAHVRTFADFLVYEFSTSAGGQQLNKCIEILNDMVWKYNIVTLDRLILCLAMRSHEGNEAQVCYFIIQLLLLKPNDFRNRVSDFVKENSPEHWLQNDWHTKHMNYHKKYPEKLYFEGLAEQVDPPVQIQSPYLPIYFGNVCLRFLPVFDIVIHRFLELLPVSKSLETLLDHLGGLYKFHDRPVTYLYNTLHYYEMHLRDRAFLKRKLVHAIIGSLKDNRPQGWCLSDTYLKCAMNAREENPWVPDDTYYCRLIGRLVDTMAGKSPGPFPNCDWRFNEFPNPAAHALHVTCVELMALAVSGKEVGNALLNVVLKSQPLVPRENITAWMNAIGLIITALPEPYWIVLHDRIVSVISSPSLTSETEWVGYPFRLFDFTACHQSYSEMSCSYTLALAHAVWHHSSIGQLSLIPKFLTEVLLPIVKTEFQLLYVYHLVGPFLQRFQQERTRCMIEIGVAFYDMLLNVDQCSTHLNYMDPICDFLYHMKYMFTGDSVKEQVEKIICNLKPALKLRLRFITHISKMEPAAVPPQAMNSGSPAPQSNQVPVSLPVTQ

T1 sequence (Q9ULK4 whole entry, one chain of several): as the sequence (Q9ULK4 whole entry, the tested form may be a part, canonical isoform) above

binding result [1]: binds
binding result [2]: binds
B1: nanobody Nb106 (VHH)
VHH: QVQLVESGGGLVQAGASLRLSCAVSGRTGSIYTMGWFRQAPGKEREVVARTTWTPGSTKYADSVKGRVAISRDIAKNTLYLQMNNLKPEDTAVYYCAACAYGTCYYGDRAYEYWGQGTQVTVSS
notes: A related nanobody (PDB 5IMK) was used to fit the density; it is not Nb106; also called lama nanobody; source: E. coli WK6, periplasmic extract, purified (Ni-NTA, Superdex 75)
